First the molecules themselves.
B1: Spt6-3XFLAG (wild type) [S. cerevisiae (endogenous in strain S288c)] / Spn1 (wild type) [S. cerevisiae (endogenous in strain S288c)] (parent)
chain 1: MEETGDSKLVPRDEEEIVNDNDETKAPSEEEEGEDVFDSSEEDEDIDEDEDEARKVQEGFIVNDDDENEDPGTSISKKRRKHKRREREEDDRLSEDDLDLLMENAGVERTKASSSSGKFKRLKRVGDEGNAAESESDNVAASRQDSTSKLEDFFSEDEEEEESGLRNGRNNEYGRDEEDHENRNRTADKGGILDELDDFIEDDEFSDEDDETRQRRIQEKKLLREQSIKQPTQITGLSSDKIDEMYDIFGDGHDYDWALEIENEELENGNDNNEAEEEEIDEETGAIKSTKKKISLQDIYDLEDLKKNLMTEGDMKIRKTDIPERYQELRAGITDYGNMSSEDQELERNWIAEKISVDKNFDANYDLTEFKEAIGNAIKFITKENLEVPFIYAYRRNYISSREKDGFLLTEDDLWDIVSLDIEFHSLVNKKDYVQRFYAELHIDDPIVTEYFKNQNTASIAELNSLQDIYDYLEFKYANEINEMFINHTGKTGKKHLKNSSYEKFKASPLYQAVSDIGISAEDVGENISSQHQIHPPVDHPSSKPVEVIESILNANSGDLQVFTSNTKLAIDTVQKYYSLELSKNTKIREKVRSDFSKYYLADVVLTAKGKKEIQKGSLYEDIKYAINRTPMHFRRDPDVFLKMVEAESLNLLSVKLHMSSQAQYIEHLFQIALETTNTSDIAIEWNNFRKLAFNQAMDKIFQDISQEVKDNLTKNCQKLVAKTVRHKFMTKLDQAPFIPNVRDPKIPKILSLTCGQGRFGADAIIAVYVNRKGDFIRDYKIVDNPFDKTNPEKFEDTLDNIIQSCQPNAIGINGPNPKTQKFYKRLQEVLHKKQIVDSRGHTIPIIYVEDEVAIRYQNSERAAQEFPNKPPLVKYCIALARYMHSPLLEYANLTSEEVRSLSIHPHQNLLSSEQLSWALETAFVDIVNLVSVEVNKATDNNYYASALKYISGFGKRKAIDFLQSLQRLNEPLLARQQLITHNILHKTIFMNSAGFLYISWNEKRQKYEDLEHDQLDSTRIHPEDYHLATKVAADALEYDPDTIAEKEEQGTMSEFIELLREDPDRRAKLESLNLESYAEELEKNTGLRKLNNLNTIVLELLDGFEELRNDFHPLQGDEIFQSLTGESEKTFFKGSIIPVRVERFWHNDIICTTNSEVECVVNAQRHAGAQLRRPANEIYEIGKTYPAKVIYIDYANITAEVSLLDHDVKQQYVPISYSKDPSIWDLKQELEDAEEERKLMMAEARAKRTHRVINHPYYFPFNGRQAEDYLRSKERGEFVIRQSSRGDDHLVITWKLDKDLFQHIDIQELEKENPLALGKVLIVDNQKYNDLDQIIVEYLQNKVRLLNEMTSSEKFKSGTKKDVVKFIEDYSRVNPNKSVYYFSLNHDNPGWFYLMFKINANSKLYTWNVKLTNTGYFLVNYNYPSVIQLCNGFKTLLKSNSSKNRMNNYR
chain 2: MSTADQEQPKVVEATPEDGTASSQKSTINAENENTKQNQSMEPQETSKGTSNDTKDPDNGEKNEEAAIDENSNVEAAERKRKHISTDFSDDDLEKEEHNDQSLQPTVENRASKDRDSSATPSSRQELEEKLDRILKKPKVRRTRRDEDDLEQYLDEKILRLKDEMNIAAQLDIDTLNKRIETGDTSLIAMQKVKLLPKVVSVLSKANLADTILDNNLLQSVRIWLEPLPDGSLPSFEIQKSLFAALNDLPVKTEHLKESGLGRVVIFYTKSKRVEAQLARLAEKLIAEWTRPIIGASDNYRDKRIMQLEFDSEKLRKKSVMDSAKNRKKKSKSGEDPTSRGSSVQTLYEQAAARRNRAAAPAQTTTDYKYAPVSNLSAVPTNARAVGVGSTLNNSEMYKRLTSRLNKKHK
B2: Spn1 (wild type) [S. cerevisiae (endogenous in strain S288c)] / Spt6-3XFLAG (wild type) [S. cerevisiae (endogenous in strain S288c)] (parent)
chain 1: B1 chain 2
chain 2: B1 chain 1

Variants of B1 are the subject of the first experiment. Description: Spt6-3XFLAG affinity purification with quantitative mass spectrometry. Particulars: shift to non-permissive temperature, point at -log10 p-value about 3.5, read off a plot.
With chain 1 F249K, the screen value (log2 fold-change) was -4.2.

Another experiment covers variants of B2. The description is as above. Particulars: with Spt6-3XFLAG (wild type) [S. cerevisiae (endogenous in strain S288c)]; shift to non-permissive temperature; point at -log10 p-value about 3.4; read off a plot.
As for chain 1 MSTADQEQPKVVEATPEDGTASSQKSTINAENENTKQNQSMEPQETSKGTSNDTKDPDNGEKNEEAAIDENSNVEAAERKRKHISTDFSDDDLEKEEHNDQSLQPTVENRASKDRDSSATPSSRQELEEKLDRILKKPKVRRTRRDEDDLEQYLDEKILRLKDEMNIAAQLDIDTLNKRIETGDTSLIAMQKVKLLPKVVSVLSKANLADTILDNNLLQSVRIWLEPLPDGSLPSFEIQKSLFAALNDLPVKTEHLKESGLGDVVIFYTKSKRVEAQLARLAEKLIAEWTRPIIGASDNYRDKRIMQLEFDSEKLRKKSVMDSAKNRKKKSKSGEDPTSRGSSVQTLYEQAAARRNRAAAPAQTTTDYKYAPVSNLSAVPTNARAVGVGSTLNNSEMYKRLTSRLNKKHK [chain 1 R263D], the screen value (log2 fold-change) is -4.

Still in this experiment, the particulars now being: with Spt6-3XFLAG (wild type) [S. cerevisiae (endogenous in strain S288c)]; shift to non-permissive temperature; point at -log10 p-value about 3.5; read off a plot.
For the variant chain 1 MSTADQEQPKVVEATPEDGTASSQKSTINAENENTKQNQSMEPQETSKGTSNDTKDPDNGEKNEEAAIDENSNVEAAERKRKHISTDFSDDDLEKEEHNDQSLQPTVENRASKDRDSSATPSSRQELEEKLDRILKKPKVRRTRRDEDDLEQYLDEKILRLKDEMNIAAQLDIDTLNKRIETGDTSLIAMQKVKLLPKVVSVLSKANLADTILDNNLLQSVRIWLEPLPDGSLPSFEIQKSLFAALNDLPVKTEHLKESGLGRVVIEYTKSKRVEAQLARLAEKLIAEWTRPIIGASDNYRDKRIMQLEFDSEKLRKKSVMDSAKNRKKKSKSGEDPTSRGSSVQTLYEQAAARRNRAAAPAQTTTDYKYAPVSNLSAVPTNARAVGVGSTLNNSEMYKRLTSRLNKKHK [chain 1 F267E], the screen value (log2 fold-change) was -4.3.

The values above are taken from publication PMC12053661.
